Numbering of substitutions follows the chain as printed.
B1: RV31 (bispecific antibody, human IgG1, kappa, lambda, L234A L235A)
heavy: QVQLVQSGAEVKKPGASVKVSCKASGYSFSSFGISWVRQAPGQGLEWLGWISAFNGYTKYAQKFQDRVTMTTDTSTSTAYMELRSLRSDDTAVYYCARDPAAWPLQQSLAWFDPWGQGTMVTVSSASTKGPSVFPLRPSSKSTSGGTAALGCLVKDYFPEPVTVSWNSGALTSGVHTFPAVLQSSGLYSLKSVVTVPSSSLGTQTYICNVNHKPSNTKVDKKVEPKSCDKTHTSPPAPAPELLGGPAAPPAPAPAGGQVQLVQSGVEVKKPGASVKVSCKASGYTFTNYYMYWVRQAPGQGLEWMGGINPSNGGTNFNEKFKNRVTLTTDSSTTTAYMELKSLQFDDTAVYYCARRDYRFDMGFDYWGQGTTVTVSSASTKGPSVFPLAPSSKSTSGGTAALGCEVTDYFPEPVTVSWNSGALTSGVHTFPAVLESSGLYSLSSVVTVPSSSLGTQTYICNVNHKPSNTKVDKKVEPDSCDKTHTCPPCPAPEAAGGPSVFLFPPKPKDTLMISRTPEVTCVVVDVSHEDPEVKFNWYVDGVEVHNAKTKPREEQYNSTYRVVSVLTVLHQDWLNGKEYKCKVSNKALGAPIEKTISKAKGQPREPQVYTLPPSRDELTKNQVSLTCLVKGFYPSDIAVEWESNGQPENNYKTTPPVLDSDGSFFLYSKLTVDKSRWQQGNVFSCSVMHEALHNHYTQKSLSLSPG
light 1: EIVLTQSPATLSLSPGERATLSCRASKGVSTSGYSYLHWYQQKPGQAPRLLIYLASYLESGVPARFSGSGSGTDFTLTISSLEPEDFAVYYCQHSRDLPLTFGGGTKVEIKRTVAAPSVFIFPPKDERLKSGTASVVCLLNNFYPREAKVQWKVDNALQSGNSQESVTEQDSKDSTYSLSSRLTLSKADYEKHKVYACEVTHQGLSSPVTKSFNRGEC
light 2: QSVLTQPPSASGTPGQRVTISCSGSTSNLKRNYVYWYQQLPGTAPKLLIYRDRRRPSGVPDRFSGSKSGTSASLAISGLRSEDEADYYCAWYDRELSEWVFGGGTKLTVLQPKAAPSVTLFPPSDEELQANTATLVCLISDFYPGAVTVAWKADSSPVKAGVETTTPSKQSNNKYAAESELSLTPEQWKSHRSYSCQVTHEGSTVEKTVAPTECS
notes: Dual Fab domain format (H1H1L1L1L2L2), IgG1 LALAPG; Purity 83 % main peak; O-glycosylation reported, likely in the inter-Fab linker
B2: RV32 (bispecific antibody, human IgG1, kappa, lambda, L234A L235A)
heavy: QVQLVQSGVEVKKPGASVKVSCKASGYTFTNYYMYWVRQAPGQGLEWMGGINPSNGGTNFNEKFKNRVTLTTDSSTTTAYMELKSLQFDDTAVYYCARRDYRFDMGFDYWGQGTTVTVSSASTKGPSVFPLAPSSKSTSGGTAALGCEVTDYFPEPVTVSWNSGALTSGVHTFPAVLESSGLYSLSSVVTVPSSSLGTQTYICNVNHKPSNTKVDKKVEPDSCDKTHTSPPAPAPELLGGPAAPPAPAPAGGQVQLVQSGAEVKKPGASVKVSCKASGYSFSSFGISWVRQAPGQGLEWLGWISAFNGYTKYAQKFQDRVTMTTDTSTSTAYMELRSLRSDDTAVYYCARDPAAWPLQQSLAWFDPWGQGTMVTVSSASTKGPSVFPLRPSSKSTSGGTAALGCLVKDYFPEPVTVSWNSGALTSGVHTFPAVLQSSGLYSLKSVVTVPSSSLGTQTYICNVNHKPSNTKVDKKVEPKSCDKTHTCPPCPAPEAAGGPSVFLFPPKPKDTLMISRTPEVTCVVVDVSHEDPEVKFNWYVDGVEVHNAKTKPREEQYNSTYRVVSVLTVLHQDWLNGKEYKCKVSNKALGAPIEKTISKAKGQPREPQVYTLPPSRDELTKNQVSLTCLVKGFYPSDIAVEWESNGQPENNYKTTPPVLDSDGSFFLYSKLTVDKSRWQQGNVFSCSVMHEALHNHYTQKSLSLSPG
light 1: B1 light 1
light 2: B1 light 2
notes: Dual Fab domain format (H1H1L1L1L2L2), IgG1 LALAPG; O-glycosylation reported, likely in the inter-Fab linker; also called bispecific antibody in dual Fab domain format (RV32); bispecific anti-PD-1 x anti-IL-15 antibody
B3: RV29 (bispecific antibody, human IgG1, kappa, L234A L235A)
heavy: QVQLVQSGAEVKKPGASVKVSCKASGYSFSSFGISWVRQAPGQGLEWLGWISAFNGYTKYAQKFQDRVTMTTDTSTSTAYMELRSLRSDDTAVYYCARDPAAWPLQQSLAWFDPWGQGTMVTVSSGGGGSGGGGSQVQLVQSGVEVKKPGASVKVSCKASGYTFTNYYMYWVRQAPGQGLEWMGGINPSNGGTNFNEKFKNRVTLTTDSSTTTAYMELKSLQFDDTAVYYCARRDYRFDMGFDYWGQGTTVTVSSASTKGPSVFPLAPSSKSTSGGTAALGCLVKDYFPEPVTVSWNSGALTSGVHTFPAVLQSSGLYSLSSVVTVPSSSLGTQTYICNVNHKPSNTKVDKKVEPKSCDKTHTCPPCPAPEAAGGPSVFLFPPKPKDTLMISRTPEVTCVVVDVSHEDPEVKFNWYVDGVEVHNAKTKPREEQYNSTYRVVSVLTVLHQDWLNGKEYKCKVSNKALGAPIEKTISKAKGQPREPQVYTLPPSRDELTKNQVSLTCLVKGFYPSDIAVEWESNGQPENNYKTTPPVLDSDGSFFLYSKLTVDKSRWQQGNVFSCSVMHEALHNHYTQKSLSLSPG
light: QSVLTQPPSASGTPGQRVTISCSGSTSNLKRNYVYWYQQLPGTAPKLLIYRDRRRPSGVPDRFSGSKSGTSASLAISGLRSEDEADYYCAWYDRELSEWVFGGGTKLTVLGGGGSGGGGSEIVLTQSPATLSLSPGERATLSCRASKGVSTSGYSYLHWYQQKPGQAPRLLIYLASYLESGVPARFSGSGSGTDFTLTISSLEPEDFAVYYCQHSRDLPLTFGGGTKVEIKRTVAAPSVFIFPPSDEQLKSGTASVVCLLNNFYPREAKVQWKVDNALQSGNSQESVTEQDSKDSTYSLSSTLTLSKADYEKHKVYACEVTHQGLSSPVTKSFNRGEC
notes: Dual variable domain format, IgG1 LALAPG; also called bispecific antibody in DVD format (RV29); bispecific anti-PD-1 x anti-IL-15 antibody
B4: RV1 (antibody, human IgG1, lambda, V domains shown)
VH: QVQLVQSGAEVKKPGASVKVSCKASGYSFSSFGISWVRQAPGQGLEWLGWISAFNGYTKYAQKFQDRVTMTTDTSTSTAYMELRSLRSDDTAVYYCARDPAAWPLQQSLAWFDPWGQGTMVTVSS
VL: QSVLTQPPSASGTPGQRVTISCSGSTSNLKRNYVYWYQQLPGTAPKLLIYRDRRRPSGVPDRFSGSKSGTSASLAISGLRSEDEADYYCAWYDRELSEWVFGGGTKLTVLQ
notes: also called anti-IL-15 antibody (RV1); DISC0280-derived monospecific parent antibody
B5: RV36 (bispecific antibody, human IgG1, kappa, L234A L235A)
heavy: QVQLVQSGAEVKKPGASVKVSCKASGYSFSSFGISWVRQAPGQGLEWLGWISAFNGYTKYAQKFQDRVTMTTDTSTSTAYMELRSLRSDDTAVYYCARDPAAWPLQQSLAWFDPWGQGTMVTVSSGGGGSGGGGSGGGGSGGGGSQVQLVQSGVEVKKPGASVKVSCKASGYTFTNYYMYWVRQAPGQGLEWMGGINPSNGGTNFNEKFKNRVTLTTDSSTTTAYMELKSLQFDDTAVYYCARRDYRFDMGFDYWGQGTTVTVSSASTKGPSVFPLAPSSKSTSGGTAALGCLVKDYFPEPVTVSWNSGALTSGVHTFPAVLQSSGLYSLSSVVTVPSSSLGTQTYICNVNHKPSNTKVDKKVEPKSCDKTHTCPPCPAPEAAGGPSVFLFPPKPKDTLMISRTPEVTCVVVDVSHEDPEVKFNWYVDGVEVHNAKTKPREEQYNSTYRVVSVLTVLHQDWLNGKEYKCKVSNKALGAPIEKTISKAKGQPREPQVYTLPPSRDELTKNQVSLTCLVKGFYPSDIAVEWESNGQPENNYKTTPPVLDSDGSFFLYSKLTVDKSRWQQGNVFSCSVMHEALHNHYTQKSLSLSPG
light: QSVLTQPPSASGTPGQRVTISCSGSTSNLKRNYVYWYQQLPGTAPKLLIYRDRRRPSGVPDRFSGSKSGTSASLAISGLRSEDEADYYCAWYDRELSEWVFGGGTKLTVLGGGGSGGGGSGGGGSGGGGSEIVLTQSPATLSLSPGERATLSCRASKGVSTSGYSYLHWYQQKPGQAPRLLIYLASYLESGVPARFSGSGSGTDFTLTISSLEPEDFAVYYCQHSRDLPLTFGGGTKVEIKRTVAAPSVFIFPPSDEQLKSGTASVVCLLNNFYPREAKVQWKVDNALQSGNSQESVTEQDSKDSTYSLSSTLTLSKADYEKHKVYACEVTHQGLSSPVTKSFNRGEC
notes: Dual variable domain format like RV29 but with a longer inter-Fv linker, IgG1 LALAPG
B6: RV26 (bispecific antibody, human IgG1, lambda, L234A L235A)
heavy 1: QVQLVQSGAEVKKPGASVKVSCKASGYSFSSFGISWVRQAPGQGLEWLGWISAFNGYTKYAQKFQDRVTMTTDTSTSTAYMELRSLRSDDTAVYYCARDPAAWPLQQSLAWFDPWGQGTMVTVSSASTKGPSVFPLAPSSKSTSGGTAALGCLVKDYFPEPVTVSWNSGALTSGVHTFPAVLQSSGLYSLSSVVTVPSSSLGTQTYICNVNHKPSNTKVDKKVEPKSCDKTHTCPPCPAPEAAGGPSVFLFPPKPKDTLMISRTPEVTCVVVDVSHEDPEVKFNWYVDGVEVHNAKTKPREEQYNSTYRVVSVLTVLHQDWLNGKEYKCKVSNKALGAPIEKTISKAKGQPREPQVYVYPPSRDELTKNQVSLTCLVKGFYPSDIAVEWESNGQPENNYKTTPPVLDSDGSFALVSKLTVDKSRWQQGNVFSCSVMHEALHNHYTQKSLSLSPGKGGGGSGGGGSGGGGSGGGGSEIVLTQSPATLSLSPGERATLSCRASKGVSTSGYSYLHWYQQKPGQAPRLLIYLASYLESGVPARFSGSGSGTDFTLTISSLEPEDFAVYYCQHSRDLPLTFGCGTKVEIKGGSGGGSGGGSGGGSGGGSGQVQLVQSGVEVKKPGASVKVSCKASGYTFTNYYMYWVRQAPGQCLEWMGGINPSNGGTNFNEKFKNRVTLTTDSSTTTAYMELKSLQFDDTAVYYCARRDYRFDMGFDYWGQGTTVTVSS
heavy 2: QVQLVQSGAEVKKPGASVKVSCKASGYSFSSFGISWVRQAPGQGLEWLGWISAFNGYTKYAQKFQDRVTMTTDTSTSTAYMELRSLRSDDTAVYYCARDPAAWPLQQSLAWFDPWGQGTMVTVSSASTKGPSVFPLAPSSKSTSGGTAALGCLVKDYFPEPVTVSWNSGALTSGVHTFPAVLQSSGLYSLSSVVTVPSSSLGTQTYICNVNHKPSNTKVDKKVEPKSCDKTHTCPPCPAPEAAGGPSVFLFPPKPKDTLMISRTPEVTCVVVDVSHEDPEVKFNWYVDGVEVHNAKTKPREEQYNSTYRVVSVLTVLHQDWLNGKEYKCKVSNKALGAPIEKTISKAKGQPREPQVYVLPPSRDELTKNQVSLLCLVKGFYPSDIAVEWESNGQPENNYLTWPPVLDSDGSFFLYSKLTVDKSRWQQGNVFSCSVMHEALHNHYTQKSLSLSPG
light: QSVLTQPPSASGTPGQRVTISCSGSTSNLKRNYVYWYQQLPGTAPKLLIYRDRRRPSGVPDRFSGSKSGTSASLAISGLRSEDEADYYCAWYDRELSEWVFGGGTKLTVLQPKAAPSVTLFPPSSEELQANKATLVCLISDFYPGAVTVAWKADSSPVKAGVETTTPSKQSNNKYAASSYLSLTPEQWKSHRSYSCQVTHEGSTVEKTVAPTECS
notes: Heterodimeric IgG1 LALAPG, two anti-IL-15 Fabs and one anti-PD1 scFv (H1H2L1L1); also called fusion of 1 scFv to a HC of a bispecific antibody in Fab-Fab format (RV26)
B7: RV15 (bispecific antibody, human IgG1, kappa, lambda, L234A L235A)
heavy 1: QVQLVQSGVEVKKPGASVKVSCKASGYTFTNYYMYWVRQAPGQGLEWMGGINPSNGGTNFNEKFKNRVTLTTDSSTTTAYMELKSLQFDDTAVYYCARRDYRFDMGFDYWGQGTTVTVSSASTKGPSVFPLAPSSKSTSGGTAALGCEVTDYFPEPVTVSWNSGALTSGVHTFPAVLESSGLYSLSSVVTVPSSSLGTQTYICNVNHKPSNTKVDKKVEPDSCDKTHTCPPCPAPEAAGGPSVFLFPPKPKDTLMISRTPEVTCVVVDVSHEDPEVKFNWYVDGVEVHNAKTKPREEQYNSTYRVVSVLTVLHQDWLNGKEYKCKVSNKALGAPIEKTISKAKGQPREPQVYVYPPSRDELTKNQVSLTCLVKGFYPSDIAVEWESNGQPENNYKTTPPVLDSDGSFALVSKLTVDKSRWQQGNVFSCSVMHEALHNHYTQKSLSLSPG
light 1: B1 light 1
heavy 2: B6 heavy 2 with A137R, S191K
light 2: B1 light 2
notes: Asymmetric IgG1 LALAPG heterodimer, one anti-PD1 Fab arm and one anti-IL-15 Fab arm (H1H2L1L2); also called bispecific antibody in a Fab-Fab format (RV15)

Columns and labels:
human IL-15 [1] = target: T1, human IL-15 (human, UniProt P40933 49-162); test: SPR, variant captured on anti-human Fc, IL-15 analyte, single-cycle kinetics, 1:1 fit
T1 construct: also called Premium grade IL-15; GMP grade human IL-15
T1 sequence (P40933 49-162 limits assumed): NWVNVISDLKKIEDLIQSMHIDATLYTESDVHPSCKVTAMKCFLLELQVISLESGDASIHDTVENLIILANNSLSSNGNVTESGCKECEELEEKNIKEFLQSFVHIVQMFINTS
Experimental: (§1) EDC: 1-ethyl-3-(3-dimethylaminopropyl) carbodiimide hydrochloride; NHS: N-Hydroxysuccinimide; SPR: surface plasmon resonance; EDTA: ethylenediaminetetraacetic acid SPR Supplies Series S Sensor Chip CM5, Biacore amine coupling kit (NHS, EDC and 1 M ethanolamine), and 10 mM sodium acetate buffers were purchased from Cytiva Life Sciences (Marlborough, MA). […] PBS running buffer with 1% Tween20 (PBST) was purchased from Teknova Inc. (Hollister, Calif.). Goat polyclonal anti-human Fc antibody was purchased from Jackson Immuno Research Laboratories Inc. (West Grove, Pa.). EDTA was purchased from Bioshop (Burlington, ON). All SPR assays were carried out using a Biacore T200 Surface Plasmon Resonance instrument (Cytiva Life Sciences, (Marlborough, MA)) with PBST running buffer (with 0.5 M EDTA stock solution added to 3.4 mM final concentration) at a temperature of 25° C. The anti-human Fc capture surface was generated using a Series S Sensor Chip CM5 using the default parameters under the Immobilization Wizard in the Biacore T200 control software which was set to target 3000 resonance units (RUs).
The first flow cell was left empty to use as a blank control. […] The captured antibody surfaces were regenerated twice by 10 mM Glycine pH1.5 for 30 seconds at 30 μL/min. Buffer injections were performed for each analyte injection to be used for referencing.

human IL-15 [2] = target: T1, human IL-15; test: SPR, variant captured on immobilised PD1, IL-15 analyte, single-cycle kinetics, 1:1 fit
human PD-1 [3] = target: T2, human PD-1 (human, UniProt Q15116 25-167, limits assumed); test: SPR, variant as analyte over immobilised PD1 (avidity possible)
T2 construct: Recombinant protein used in SPR as analyte or amine-coupled ligand; also called PD1 antigen
T2 sequence (Q15116 25-167 limits assumed): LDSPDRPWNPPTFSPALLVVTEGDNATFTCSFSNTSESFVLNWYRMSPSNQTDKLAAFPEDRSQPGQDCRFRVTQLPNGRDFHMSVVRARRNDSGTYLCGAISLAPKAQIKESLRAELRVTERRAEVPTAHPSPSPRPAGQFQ

human PD-1 [4] = target: T2, human PD-1; test: SPR, variant as analyte over immobilised PD1 (avidity possible); PD1 capture surface, RV29 as analyte (third entry of the cell; avidity possible)
human PD-1 [5] = target: T2, human PD-1; test: SPR, variant captured on protein A, PD1 analyte
Experimental: as §1, with “The anti-human Fc capture surface was generated using a Series S Sensor Chip CM5 using the default parameters under the Immobilization Wizard in the Biacore T200 control software which was set to target 3000 resonance units (RUs).” left out
The first flow cell was left empty to use as a blank control. […] Buffer injections were performed for each analyte injection to be used for referencing.

human PD-1 [6] = target: T2, human PD-1; test: SPR, variant as analyte over immobilised PD1

Kd (human IL-15 [1]) | Kd (human IL-15 [2]) | Kd (human PD-1 [3]) | Kd (human PD-1 [4]) | Kd (human PD-1 [5]) | Kd (human PD-1 [6]) | Binder
0.18 nM | 0.717 nM | 0.163 nM | – | – | – | B1
0.108 nM | 0.352 nM | 0.0678 nM | – | – | – | B2
0.114 nM | 0.339 nM | – | 2.35 nM | – | – | B3
0.349 nM | – | – | – | – | – | B4
0.116 nM | 0.111 nM | 0.243 nM | – | 97 nM | – | B5
0.396 nM | – | – | – | – | 2.19 nM | B6
0.108 nM | – | – | – | – | 3.62 nM | B7

— patent US12692305 (REVERB THERAPEUTICS, dated 2026)
